Experimental data published in patent publication US20030176674A1 (Human Genome Sciences, published 2003).
Numbering of substitutions follows the chain as printed.

Target: T1, secreted form of VEGF-2 polypeptide (human vascular endothelial growth factor 2) (human, UniProt P49767 112-227, limits assumed)
T1 construct: also called secreted VEGF-2 protein
T1 sequence: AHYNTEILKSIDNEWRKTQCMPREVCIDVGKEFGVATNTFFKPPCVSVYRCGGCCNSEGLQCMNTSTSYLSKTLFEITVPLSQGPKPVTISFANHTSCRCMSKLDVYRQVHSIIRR
Assay: BIAcore (SPR), CM5 chip; antibody captured by goat anti-human Fc; secreted VEGF-2 injected at 2.9-95.2 nM; double reference subtraction
Protocol: A high-density CM5 BIAcore sensor chip was prepared using 10 ug/mL of purified goat anti-human fc antibody as the capture reagent. The optimal pH for immobilization was pH 4 (10 mM sodium acetate). An EDC/NHS complex was applied first to activate the carboxyl groups on the sensor matrix. After the VEGF-2 antibodies were immobilized, the esters were inactivated with ethanolamine. Both a control and an experimental flow cell were used.
The kinetics cycle was performed with the following procedures. The flow rate for the entire binding cycle was 25 uL/minute. The purified VEGF-2 antibody, at 5 ug/mL, was injected only in the experimental flow cell for 1 minute. The secreted form of VEGF-2 was then injected into control and experimental flow cells. The concentration the secreted form of VEGF-2 polypeptide varied for each cycle. The secreted form of VEGF-2 polypeptide (calculated as a 21 kDa dimer) was diluted in HBS-EP from 2 ug/mL (95.2 nM) to-0.06 ug/mL (2.9 nM). Both association and dissociation was 7 minutes. Regeneration was performed using 8 uL of 25 mM HCl for all flow cells.
Evaluation was performed using the double reference subtraction, which subtracts the control flow cell from the experimental and also subtracts a buffer injection.

B1: antibody 1.2.3 (antibody expressed by hybridoma cell line 1.2.3, ATCC Deposit Number PTA-3342) (antibody, human IgG2, V domains shown)
VH: QVQLVESGGGVVQPGRSLRLSCAASGFTFSRYGMHWVRQAPGKGLEWVALIWYDGSNKYYADSVKGRFTISRDNSKNTLYLQMNSLRAEDTAVYYCARDGFGSGCFDYWGQGTLVTVSS
VL: DIVMTQTPLSLSVTPGQPASISCKSSQSLLHSDGKTYLYWHLQKPGQPPQLLIYEVSHRFSGVPDRFSGSGSGTDFTLKISRVEAEDVGLYYCVQSIQLPLTFGGGTKVEIKR
notes: Purified hybridoma antibody from XenoMouse; also called Hybridoma 1.2.3
  Kd: 0.321 nM
  koff: 9.49e-05 s⁻¹
  kon: 295000 M⁻¹ s⁻¹

B2: antibody 1.5.1 (antibody expressed by hybridoma cell line 1.5.1, ATCC Deposit Number PTA-3341) (antibody, V domains shown)
VH: QVQLVESGGGVVQPGRSLRLSCAASGFTFSRYGMHWVRQAPGKGLEWVAIIWYDGSDKYYADSVKGRFTISRDNSKNTLYLQMSSLRAEDTAVYYCARGTVGASFDYWGQGTLVTVSS
VL: B1 VL with H31N, H41Y, Y54N, H58N, L90V, V94L
notes: Purified hybridoma antibody from XenoMouse; VAX1510 is the IgG1 conversion of 1.5.1; also called Hybridoma 1.5.1
  Kd: 1.79 nM
  koff: 0.000657 s⁻¹
  kon: 367000 M⁻¹ s⁻¹
